Measurements: patent publication US20210085781A1 (KORANEX CAPITAL, published 2021)

Molecular target: T1, recombinant SARS-CoV-2 S1 protein expressed from insect (Sf9) cells (S1-His, SinoBiological, Cat. No. … (SARS-CoV-2, UniProt P0DTC2 16-685))
T1 construct: also called S1 protein from insect (Sf9) cells
Test: ELISA, coated S1 from Sf9 cells, HRP-conjugated lectin 10 ug/mL

B1: Maclura pomifera lectin (MPA; Cat. No: H-3901-1) (other)
chain 1: GVTFDDGAYTGIREINFEYNSETAIGGLRVTYDLNGMPFVAEDHKSFITGFKPVKISLEFPSEYIVEVSGYVGKVEGYTVIRSLTFKTNKQTYGPYGVTNGTPFSLPIENGLIVGFKGSIGYWLDYFSIYLSL
chain 2: GRNGKSQSIIVGPWGDRVTN
  mean fold increase of OD450: 7.51 fold
